Measurements as given in paper PMC10201364 (MicrobiologyOpen, 2023).

Key:
[1] = target: Ah‐BarR M103T (P ah‐barR promoter, mKate2 reporter) (Acidianus hospitalis, UniProt F4B5V3, M103T); assay: cell-based; type: cell-based; conditions: BS1 M103T; 5 mM glutamine, 20 mg/L naringenin (Figure A7)
Procedure: (§1) Reporter gene assays were performed as previously described (Bernauw et al., [2022]). pPRC6 and pITC variants (Table 1) were co‐transformed in E. coli MG1655 chemical competent cells using heat shock transformation. Transformant colonies of the Ah‐BarR biosensor strains were picked to inoculate wells of a transparent 96‐well plate (Greiner Bio‐One), each well filled with 200 µL of MOPS EZ Rich Defined medium (Teknova), prepared without the addition of the 5X EZ Supplement, after which the plate was incubated overnight in a ThermoMixer C (Eppendorf) at 30°C and 300 rpm. Next, a black 96‐well plate was filled with a naringenin solution prepared in ethanol (250 mg/L or 2.5 g/L), after which a Breathe‐Easy sealing membrane (Sigma‐Aldrich) was applied and the ethanol was evaporated in a ThermoMixer C (Eppendorf) at 75°C. […] Finally, the plate was sealed again using a Breathe‐Easy sealing membrane (Sigma‐Aldrich).
(§2) Plates were incubated at 30°C and 300 rpm for 40 h in a Synergy H1 microplate reader (BioTek) with measurements of OD600 and fluorescence (excitation wavelength: 588 nm, emission wavelength: 633 nm) being taken every 20 min. The gain was set to 140 for all measurements, except for the measurements with the amino acids (pools and separately), where the gain was set to 150. […] In addition, wells solely containing medium were measured as well to correct for the background signal.
(§3) Reporter expression was analyzed at t = 30 h, when all cultures had reached the stationary phase, by taking into account three subsequent time points (t–1, t, t+1). The corrected FL/OD600 value was calculated for each replicate (n = 4) as follows: FL/ODcor=FLt−1−FLmed,t−1/ODt−1−ODmed,t−1+FLt−FLmed,t/ODt−ODmed,t+FLt+1−FLmed,t+1/ODt+1−ODmed,t+1/3
(§4) Response curves were fitted to a Hill function of the shape P(M)=b+aM^n/θ^n+M^nforaβ−alanine−inducible responseb+aθ^n/θ^n+M^nforaβ−alanine−repressible response according to a previously published procedure (Landry et al., [2018]) with minor adaptations. […] Briefly, lmfit 1.1.0 was used to fit all replicates of a response curve to the appropriate Hill function using the Levenberg‐Marquardt algorithm (Moré, [1978]; Newville et al., [2016]). […] The dynamic range was estimated as μ=a/b .

[2] = target: Ah‐BarR M103N (P ah‐barR promoter, mKate2 reporter) (Acidianus hospitalis, UniProt F4B5V3, M103N); assay: cell-based; type: cell-based; conditions: BS1 M103N; 5 mM glutamine, 20 mg/L naringenin (Figure A7)
Ah‐BarR M103N (P ah‐barR promoter, mKate2 reporter), sequence (F4B5V3 entry or part of it M103N): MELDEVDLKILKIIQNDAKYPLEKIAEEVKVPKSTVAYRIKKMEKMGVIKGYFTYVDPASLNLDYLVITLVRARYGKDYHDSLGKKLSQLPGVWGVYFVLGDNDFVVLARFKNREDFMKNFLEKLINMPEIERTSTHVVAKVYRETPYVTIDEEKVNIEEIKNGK
Procedure: as §1, §2, §3, §4

[3] = test system: T1, Ah-BarR WT (Acidianus hospitalis), ORF:d4ab5e4b; assay: EMSA; conditions: 20 mM Tris-HCl pH 8.0, 50 mM NaCl, 0.4 mM EDTA, 0.1 mM DTT, 1 mM MgCl2, 12.5% glycerol, 25 ug/mL salmon sperm DNA, 25 min at 37 C (EMSA)
T1 sequence: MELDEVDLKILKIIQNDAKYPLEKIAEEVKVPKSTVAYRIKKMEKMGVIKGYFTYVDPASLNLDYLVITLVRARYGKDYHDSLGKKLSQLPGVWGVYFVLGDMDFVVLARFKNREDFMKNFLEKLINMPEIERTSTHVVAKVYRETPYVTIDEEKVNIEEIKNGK

[4] = test system: T1, Ah-BarR WT (Acidianus hospitalis), ORF:d4ab5e4b; assay: in-gel Cu-OP footprinting; conditions: 20 mM Tris-HCl pH 8.0, 50 mM NaCl, 0.4 mM EDTA, 0.1 mM DTT, 1 mM MgCl2, 12.5% glycerol, 25 ug/mL salmon sperm DNA, 25 min at 37 C (EMSA)
[5] = test system: Ah-BarR WT (Acidianus hospitalis); assay: EMSA; conditions: no beta-alanine; octamer concentration; 20 mM Tris-HCl pH 8.0, 50 mM NaCl, 0.4 mM EDTA, 0.1 mM DTT, 1 mM MgCl2, 12.5% glycerol, 25 ug/mL salmon sperm DNA, 25 min at 37 C (EMSA)
[6] = test system: T2, Ah-BarR trunc (Acidianus hospitalis), ORF:d4ab5e4b; assay: EMSA; conditions: 20 mM Tris-HCl pH 8.0, 50 mM NaCl, 0.4 mM EDTA, 0.1 mM DTT, 1 mM MgCl2, 12.5% glycerol, 25 ug/mL salmon sperm DNA, 25 min at 37 C (EMSA)
T2 sequence: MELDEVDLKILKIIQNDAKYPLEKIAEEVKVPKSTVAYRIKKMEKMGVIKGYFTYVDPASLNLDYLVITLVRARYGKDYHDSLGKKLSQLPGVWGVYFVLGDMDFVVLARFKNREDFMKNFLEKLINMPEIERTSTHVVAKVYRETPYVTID

Ah‐BarR M103T (P ah‐barR promoter, mKate2 reporter), sequence (F4B5V3 entry or part of it M103T): as the sequence (F4B5V3 entry or part of it M103N) above, with N103T counted along it

NC(=O)CC[C@H](N)C(=O)O [glutamine] was tested, and the “glutamine response of reporter expression” value [1] was “did not lead to the acquisition of a glutamine‐specific response” and the “glutamine response of reporter expression” value [2] was “did not lead to the acquisition of a glutamine‐specific response”.
“CTTTAAGTCTACCTCGTCTAGCTCCATAATATATAATTAGAAGAGGTAATTTAAACCTTATACATTTTATCGACGAATAAGTTGAATATACAATTTAATAAAAAGGGATTATCTTGGAAATTATATTTAGACATTCCAAAGCAAGATTTAAACTATTGTACTTTTTACAATAGCTGTCCTAAAATACTTAAATTCCGTCTAAACTACTAGTATCGCATGGATGAAGATGTCGTTAAATTGGTTAAAGAACATACTTTCGGAACTTGGAAAGTTC (double strand) [Promoter mutant 2 (mut2) 274 bp]” was tested, and the Kd [3] was 36 nM.
For “CTTTAAGTCTACCTCGTCTAGCTCCATAATATATAATTAGAAGAGGTAATTTAAACCTTATACATTTTATCGACGAATAAGTTGAATATACAATTTAATAAAAAGGGATTATCTTGGAAATTATACAGAGACATTCCAAAGCAAGATTTAAACTATTGTACTTTTTACAATAGCTGTCCTAAAATACTTAAATTCCGTCTAAACTACTAGTATCGCATGGATGAAGATGTCGTTAAATTGGTTAAAGAACATACTTTCGGAACTTGGAAAGTTC (double strand) [Promoter mutant 1 (mut1) 274 bp]”, the Kd [3] was 31 nM.
In the case of “CCTTATACATTTTATCGACGAATAAGTTGAATATACAACTAAATAAAAAGGGATTATCTTGGAAATTATACAGAGACATTCCAAAGCAAGATTTAAACTATTGTACTTTTTACAATAGCTGTCCTAAAATACTTAAATTCCGTCTAAACTACTAGTATCGCATGGATG (double strand) [WT promoter short 168 bp]”, the binding [4] is reported as “binds”.
WT promoter 274 bp showed a Kd [5] of 12 nM.
For “CTTTAAGTCTACCTCGTCTAGCTCCATAATATATAATTAGAAGAGGTAATTTAAACCTTATACATTTTATCGACGAATAAGTTGAATATACAATTTAATAAAAAGGGATTATCTTGGAAATTATATTTAGACATTCCAAAGCAAGATTTAAACTATTGTACTTTTTATTTTAGCTGTCCTAAAATACTTAAATTCCGTCTAAACTACTAGTATCGCATGGATGAAGATGTCGTTAAATTGGTTAAAGAACATACTTTCGGAACTTGGAAAGTTC (double strand) [Promoter mutant 3 (mut3) 274 bp]”, the binding [3] was “no binding”.
For “CTTTAAGTCTACCTCGTCTAGCTCCATAATATATAATTAGAAGAGGTAATTTAAACCTTATACATTTTATCGACGAATAAGTTGAATATACAACTAAATAAAAAGGGATTATCTTGGAAATTATACAGAGACATTCCAAAGCAAGATTTAAACTATTGTACTTTTTACAATAGCTGTCCTAAAATACTTAAATTCCGTCTAAACTACTAGTATCGCATGGATGAAGATGTCGTTAAATTGGTTAAAGAACATACTTTCGGAACTTGGAAAGTTC (double strand) [WT promoter 274 bp]”, the Kd [3] was 12 nM, the binding [3] was “binds” and the binding [6] was “binds”.
